Data: publication PMC11481384 (2024)

Biological target: Keap1 Kelch domain (amino acid residues 309 to 624) (human, UniProt Q14145 309-624)
Test: ITC

Chain of Keap1 Kelch domain (amino acid residues 309 to 624) (Q14145 309-624): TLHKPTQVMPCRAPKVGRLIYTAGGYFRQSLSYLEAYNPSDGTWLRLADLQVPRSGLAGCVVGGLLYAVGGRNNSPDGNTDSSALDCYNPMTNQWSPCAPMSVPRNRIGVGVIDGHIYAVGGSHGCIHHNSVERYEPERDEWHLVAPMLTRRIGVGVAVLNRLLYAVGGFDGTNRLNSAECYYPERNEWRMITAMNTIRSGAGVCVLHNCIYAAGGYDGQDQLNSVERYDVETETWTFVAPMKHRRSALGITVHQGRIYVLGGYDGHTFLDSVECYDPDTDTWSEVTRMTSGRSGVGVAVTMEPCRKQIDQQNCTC

Row | Kd | Binder
1 | 14 µM | ESGEEELASKLD (Limits inferred from the name: first residue E, last residue D, 12 residues, containing ESGE; by analogy IE 12-mer = 71-82 (PDB 8IN0) and the 20-mer is probably 71-90. Synthetic peptide, termini not stated) [ED 12-mer peptide]
2 | 133 µM | NVESGE (Sequence shown only in Fig. 4B; limits taken as the NxESGE motif (UniProt Keap1-interaction region 77-82). Synthetic peptide, termini not stated) [6-mer peptide]
3 | 63.6 µM | INVRKRNVESGE [PGAM5 IE 12‐mer peptide]
